Measurements published in patent US20190016809A1 (MONASH UNIVERSITY, published 2019).
Residue numbers refer to the chain shown, from its start.

T1: human CCR6 (human, UniProt P51684 1-374)
T1 construct: whole, on cells; also called hCCR6
T1 sequence (looked up): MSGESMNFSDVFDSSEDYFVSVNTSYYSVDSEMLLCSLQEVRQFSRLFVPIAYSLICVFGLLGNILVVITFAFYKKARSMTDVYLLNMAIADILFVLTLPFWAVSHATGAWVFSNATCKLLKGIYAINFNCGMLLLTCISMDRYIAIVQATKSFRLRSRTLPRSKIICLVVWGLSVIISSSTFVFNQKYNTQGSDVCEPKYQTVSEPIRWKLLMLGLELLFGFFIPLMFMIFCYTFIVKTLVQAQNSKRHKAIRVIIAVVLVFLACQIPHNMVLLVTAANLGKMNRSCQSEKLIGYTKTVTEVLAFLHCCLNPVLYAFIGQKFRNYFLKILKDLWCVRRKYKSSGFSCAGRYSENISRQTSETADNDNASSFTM

T2: human CXCR1 (human, UniProt P25024 1-350)
T2 construct: whole, on cells; also called hCXCR1
T2 sequence (looked up): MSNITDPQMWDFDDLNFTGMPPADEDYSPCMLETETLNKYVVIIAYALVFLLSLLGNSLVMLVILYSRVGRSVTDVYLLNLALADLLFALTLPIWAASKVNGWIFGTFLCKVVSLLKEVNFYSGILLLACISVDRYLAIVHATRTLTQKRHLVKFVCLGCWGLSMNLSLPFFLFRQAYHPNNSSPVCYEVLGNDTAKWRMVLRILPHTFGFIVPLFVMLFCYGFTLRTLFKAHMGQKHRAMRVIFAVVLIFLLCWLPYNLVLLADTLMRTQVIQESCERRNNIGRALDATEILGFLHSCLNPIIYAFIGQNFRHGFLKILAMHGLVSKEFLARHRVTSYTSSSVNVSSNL

T3: human CXCR3 (human, UniProt P49682 1-368)
T3 construct: whole, on cells; also called hCXCR3
T3 sequence (looked up): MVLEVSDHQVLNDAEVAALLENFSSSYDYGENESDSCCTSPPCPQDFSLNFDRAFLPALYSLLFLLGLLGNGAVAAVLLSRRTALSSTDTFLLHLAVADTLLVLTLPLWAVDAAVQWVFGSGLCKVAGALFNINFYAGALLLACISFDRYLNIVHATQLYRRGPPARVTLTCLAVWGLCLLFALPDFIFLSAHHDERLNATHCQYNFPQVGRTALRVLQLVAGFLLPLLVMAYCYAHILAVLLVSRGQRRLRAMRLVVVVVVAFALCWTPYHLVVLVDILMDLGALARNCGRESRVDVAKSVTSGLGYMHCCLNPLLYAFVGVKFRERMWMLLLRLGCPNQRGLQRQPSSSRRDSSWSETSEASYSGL

T4: human CXCR2 (UniProt P25025 1-360)
T4 chain: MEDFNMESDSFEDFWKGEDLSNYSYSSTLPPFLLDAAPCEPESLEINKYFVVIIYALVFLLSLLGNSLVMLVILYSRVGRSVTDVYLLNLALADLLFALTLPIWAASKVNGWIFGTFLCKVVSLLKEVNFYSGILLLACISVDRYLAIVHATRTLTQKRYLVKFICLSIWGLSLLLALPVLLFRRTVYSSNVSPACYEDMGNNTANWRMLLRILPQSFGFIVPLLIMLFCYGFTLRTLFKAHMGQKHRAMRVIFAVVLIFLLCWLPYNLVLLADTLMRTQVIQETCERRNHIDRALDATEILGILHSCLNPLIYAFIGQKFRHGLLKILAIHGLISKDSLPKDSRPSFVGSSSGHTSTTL

T5: human CXCR2 (human, UniProt P25025 1-360)
T5 construct: also called hCXCR2; C-X-C motif chemokine receptor 2
T5 sequence: T4 chain

T6: biotinylated peptide corresponding to the second extracellular loop of human CXCR2 (human, UniProt P25025 184-208, limits assumed, biotinylated (position not given))
T6 construct: domain: second extracellular loop; also called 2nd loop
T6 peptide (looked up): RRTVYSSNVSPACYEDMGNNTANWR

T7: Peptide 2 (human, biotinylated (position not given))
T7 construct: Biotinylated peptide of the human CXCR2 N-terminal region, captured on streptavidin plates; also called Nter-2; Peptide 2/Nter-2
T7 peptide: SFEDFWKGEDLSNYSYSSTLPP

T8: Peptide 1 (human, biotinylated (position not given))
T8 construct: Biotinylated peptide of the human CXCR2 N-terminal region, captured on streptavidin plates; also called Nter-1; Peptide 1/Nter-1
T8 peptide: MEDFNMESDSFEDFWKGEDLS

T9: Peptide 3 (human, biotinylated (position not given))
T9 construct: Biotinylated peptide of the human CXCR2 N-terminal region; also called Nter-3; Peptide 3/Nter-3
T9 peptide: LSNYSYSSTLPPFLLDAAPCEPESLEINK

B1: m3H9 (antibody, mouse IgG3, V domains shown)
VH: QVQLQQSGPELVKPGASVKISCKASGYAFSNSWMNWVKQRPGKGLEWIGRIYPGDGNINYYGKFKDKATLTADKSSNTAYMQLSSLTSEDSAVYFCARSFLYVDFDYWGQGTTLTVSS
VL: VIVMTQTPLSLPVSLGDQASISCRSSQSLVHSNGNTYLQWYLQKPGQSPKLLIYKVSNRFSGVPDRFSGSGSGTDFTLKISRVEAEDLGVYFCSQGTHVPYTFGGGTKLEIKR
notes: also called mouse 3H9; purified mouse 3H9 mAb
B2: h3H9 (antibody, V domains shown)
VH: QVQLVQSGAEVKKPGASVKVSCKASGYAFSNSWMNWVRQAPGQRLEWIGRIYPGDGNINYYGKFKDKATLTADKSANTAYMELSSLRSEDTAVYFCARSFLYVDFDYWGQGTTLTVSS
VL: B1 VL with V1D, T7S, S14T, L15P, D17E, Q18P, K50Q, L88V, G105Q
B3: mCM2 (antibody, V domains shown)
VH: B1 VH with D104Y
VL: B1 VL with V1D, I2A, V56L, S72A, G96S
notes: Mouse hybridoma monoclonal antibody
B4: m6G7 (antibody, V domains shown)
VH: B1 VH
VL: B1 VL with V1D, I2V, T7A, S28T
notes: as for B3

Columns and labels:
human CXCR7 = target: T10, human CXCR7 (human, UniProt P25106 1-362); experiment: flow cytometry on transfected cells
T10 construct: whole, on cells; also called hCXCR7
Description: (§1) To assess reactivity of mAbs against transfected cells, we used indirect immunofluorescence staining and flow cytometry. Cells were washed once with PBS and resuspended in 100 μl PBS containing 2% (wt/vol) BSA and 0.1% (wt/vol) sodium azide (staining buffer) and purified antibody. After 30 min at 4° C., cells were washed twice with staining buffer and resuspended in 50 μl PE-conjugated anti-human IgG (Jackson ImmunoResearch Laboratories) diluted 1:500 in staining buffer for the detection of humanized mAbs or 50 μl PE-conjugated anti-mouse IgG (Jackson ImmunoResearch Laboratories) for the detection of mouse mAbs. After incubating for 20 min at 4° C., cells were washed twice with staining buffer and analyzed on LSRII flow cytometer. 7-AAD staining was used to exclude dead cells.

human CCR6 = target: T1, human CCR6; experiment: flow cytometry on transfected cells
Description: as §1

human CXCR1 = target: T2, human CXCR1; experiment: flow cytometry on transfected cells
Description: as §1

human CXCR3 = target: T3, human CXCR3; experiment: flow cytometry on transfected cells
Description: as §1

human CXCR2 [1] = target: T4, human CXCR2; experiment: flow cytometry, CXCR2 L1.2 cells
human CXCR2 [2] = target: T5, human CXCR2; experiment: competition with 125I-labelled CXCL3 (GRO-g) for CXCR2 on human neutrophils
Description: For ligand binding analysis, recombinant human GRO-g (“ligand”) was obtained from Peprotech (New Jersey, USA). 1251-Bolton-Hunter-labelled GRO-g was purchased from Perkin-Elmer (Boston, Mass., USA), with a specific activity of 2200 Ci/mM. Cells were washed once in binding buffer (50 mM Hepes, pH 7.5, 1 mM CaCI, 5 mM MgCb, 0.5% BSA) and resuspended in binding buffer at a concentration of 2.5×10^6 cells/ml. Cold Purified monoclonal antibody (cold competitor) was added to a 96-well plate followed by an equal volume (40 μl) binding buffer containing 1×10^5 cells. Cells and competitor were preincubated at room temperature for 15 min. Then radiolabeled ligand (final concentration 0.5-2 nM) was added to each well to give a final reaction volume of 120 μl. After a 60-min incubation at room temperature, the cells were washed three times with 1 ml of binding buffer containing 150 mM NaCl. The radioactivity (amount of bound label) in the cell pellets was counted in a TopCount liquid scintillation counter (Packard). Non-specific background binding was calculated by incubating cells […] radiolabelled-ligand. Samples were assayed in duplicate.

human CXCR2 [3] = target: T5, human CXCR2; experiment: ELISA, L1.2 hCXCR2 cells
[4] = target: T6, biotinylated peptide corresponding to …; experiment: ELISA on biotinylated peptide captured on streptavidin
Description: (§2) Epitope mapping studies were performed to determine the region within CXCR2 that is recognized by anti-CXCR2 mAb. Initially, biotinylated peptides corresponding to the N-terminal region and the first, second and third extracellular loops of human CXCR2 were used in an ELISA.
(§3) Three overlapping biotinylated peptides spanning the entire N-terminal region of human CXCR2 were then synthesized and used in more defined anti-CXCR2 mAb epitope mapping studies. Peptide 1 ([…]) (SEQ ID NO:53) corresponds to amino acid position 1-21 of the human CXCR2; Peptide 2 ([…]) (SEQ ID NO:55) corresponds to amino acid position 10-31 and Peptide 3 ([…]) (SEQ ID NO:54) corresponds to amino acid 20-46 position of the human CXCR2. Briefly, multiwell plates were coated with streptavidin and washed before the biotinylated peptides were added to separate wells and incubated to facilitate binding of the peptides to the plate. Different anti-human CXCR2 antibodies were then tested by adding the respective antibodies to the wells of the plate and incubating the plate. An isotype control and buffer only were included as negative controls. Following washing, appropriate conjugated antibodies were added and the plates were incubated. The plates were washed again and binding of the antibodies to the immobilised peptides was visualised.

Peptide 2 = target: T7, Peptide 2; experiment: as above
Description: as §2, §3

Peptide 1 = target: T8, Peptide 1; experiment: as above
Description: as §2, §3

Peptide 3 = target: T9, Peptide 3; experiment: as above
Description: as §2, §3

human CXCR2 [5] = target: T5, human CXCR2; experiment: flow cytometry on L1.2 hCXCR2 cells

T10 sequence (P25106 whole entry): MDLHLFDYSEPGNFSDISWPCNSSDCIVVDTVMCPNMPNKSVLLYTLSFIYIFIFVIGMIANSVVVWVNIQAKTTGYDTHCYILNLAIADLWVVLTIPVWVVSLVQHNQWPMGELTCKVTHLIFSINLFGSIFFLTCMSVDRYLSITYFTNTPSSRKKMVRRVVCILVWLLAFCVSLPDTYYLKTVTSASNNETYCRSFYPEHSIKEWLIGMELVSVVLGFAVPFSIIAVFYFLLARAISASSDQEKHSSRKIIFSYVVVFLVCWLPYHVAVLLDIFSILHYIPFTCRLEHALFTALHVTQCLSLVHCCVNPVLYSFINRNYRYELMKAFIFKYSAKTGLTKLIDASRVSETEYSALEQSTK

Row | Binder | binding result (human CXCR7) | binding result (human CCR6) | binding result (human CXCR1) | binding result (human CXCR3) | EC50 (human CXCR2 [1]) [nM] | IC50 (human CXCR2 [2]) [nM] | EC50 (human CXCR2 [3]) [nM] | binding result [4] | binding result (Peptide 2) | binding result (Peptide 1) | binding result (Peptide 3) | EC50 (human CXCR2 [5]) [nM]
1 | B1 | no binding | no binding | no binding | no binding | 1.5 | 0.7 | 1.2 | no binding | binds | binds | no binding | 1.05
2 | B2 | – | – | – | – | 2.2 | – | – | – | – | – | – | –
3 | B3 | no binding | no binding | no binding | no binding | – | 11.1 | 1.4 | no binding | binds | binds | no binding | 1.35
4 | B4 | no binding | no binding | no binding | no binding | – | 3.4 | 1.46 | no binding | binds | binds | no binding | 1.28
